Assay results taken from doi:10.1101/2024.12.23.630100 (bioRxiv, 2024).
Square brackets hold non-standard residues; d marks the D form. Ends that are not written are not given here. pY = N[C@@H](Cc1ccc(OP(=O)(O)O)cc1)C(=O)O

How the values were obtained:
[1] = molecular target: T1, SHP2 C-SH2 domain 102-220 (human, UniProt Q06124 102-220); assay: ITC
T1 sequence (looked up): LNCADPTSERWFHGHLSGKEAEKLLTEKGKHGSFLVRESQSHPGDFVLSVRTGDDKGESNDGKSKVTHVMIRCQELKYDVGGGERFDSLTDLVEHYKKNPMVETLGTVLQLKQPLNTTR

[2] = molecular target: T2, SHP2 tandem domain N-SH2-C-SH2-SHP2 1-222 (human, UniProt Q06124 1-222); assay: ITC
T2 sequence (looked up): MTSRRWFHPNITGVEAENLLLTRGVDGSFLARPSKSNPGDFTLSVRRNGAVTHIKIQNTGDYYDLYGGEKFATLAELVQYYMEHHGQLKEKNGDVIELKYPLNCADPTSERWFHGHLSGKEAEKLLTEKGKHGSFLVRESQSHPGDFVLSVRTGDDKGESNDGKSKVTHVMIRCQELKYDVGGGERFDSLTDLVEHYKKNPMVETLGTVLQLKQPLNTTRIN

B1: pY659-Gab1 655-677 monophosphorylated peptide (peptide, UniProt Q13480 655-677, looked up)
peptide: ERVD[pY]VVVDQQKTLALKSTREAW
- Kd [1]: 4000 nM

B2: pY627pY659-Gab1 613-694 (bis-phosphorylated fragment of Grb2-associated binding protein 1) (peptide, UniProt Q13480 613-694, looked up)
chain: SSPMIKPKGDKQVEYLDLDLDSGKSTPPRKQKSSGSGSSVADERVDYVVVDQQKTLALKSTREAWTDGRQSTESETPAKSVK
modifications: phosphotyrosine at 627 and 659
- Kd [2]: 37 ± 13 nM

B3: pY659-Gab1 655-666 monophosphorylated peptide (C-terminally truncated) (peptide, UniProt Q13480 655-666, looked up)
peptide: ERVD[pY]VVVDQQK
- fold reduction of affinity against pY659-Gab1 655-677 [1]: 10 fold
